Measurements taken from patent US20220048947A1.
Where no end group is shown, it is not given here.

Columns and labels:
[1] = target: NbALFA^ST (NbALFA clone 1G5); experiment: peptide elution from NbALFA^ST resin; tag position N
[2] = target: NbALFA^ST (NbALFA clone 1G5); experiment: peptide elution from NbALFA^ST resin; tag position M

Chain of NbALFA^ST (NbALFA clone 1G5) (VHH, as listed by the source): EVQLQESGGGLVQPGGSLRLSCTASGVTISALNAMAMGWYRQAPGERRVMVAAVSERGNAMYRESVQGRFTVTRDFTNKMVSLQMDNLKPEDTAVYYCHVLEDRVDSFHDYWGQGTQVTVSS

| Binder | t1/2 [1] | t1/2 [2] |
| --- | --- | --- |
| MPSAVEEELRRRLSPS (not fully specified (residues 2, 16); printed as MpSAVEEELRRRLSPs) [Mp…s (SEQ ID NO: 112)] | < 2 min | – |
| DSGALEQEIRRRLSPG [ds…g (SEQ ID NO: 100)] | – | < 2 min |
| DPSGLEQELRRRLPTA [dp…a (SEQ ID NO: 105)] | – | < 2 min |
| DSPGLEQELRRRLPTA [ds…a (SEQ ID NO: 106)] | – | < 2 min |
| MSSAVEEELRRRLSPS (not fully specified (residues 2, 16); printed as MsSAVEEELRRRLSPs) [Ms…s (SEQ ID NO: 113)] | < 2 min | – |
| DSGRLEQEIRRELSPG [ds…g (SEQ ID NO: 103)] | – | < 2 min |
| DSGRLEQEIRRQLSPG [ds…g (SEQ ID NO: 102)] | – | < 2 min |
| DSGPLEQELRRRLPTA [ds…a (SEQ ID NO: 107)] | – | < 2 min |
| SDSGEEELRRRLSPG [sdSG-…g (SEQ ID NO: 92)] | – | < 2 min |
| MSAVEEELRRRLSPS (not fully specified (residue 15); printed as MSAVEEELRRRLSPs) […s (SEQ ID NO: 109)] | < 2 min | – |
| DSGRLEQEIRRALSPG [ds…g (SEQ ID NO: 101)] | – | < 2 min |
| DSGRLEEELRSPG [dsGRLEEELR---SPg (SEQ ID NO: 96)] | – | < 2 min |
| SDSGAEEELRRRLSPG [sd…g (SEQ ID NO: 98)] | – | < 2 min |
| MSAVEEELRRRLSPS (not fully specified (residue 15); printed as MSAVEEELRRRLSPs) […s (SEQ ID NO: 111)] | < 2 min | – |
| PDSGLEQELRRRLPTA [pd…a (SEQ ID NO: 104)] | – | < 2 min |
| SDSGEELRRRLSPG [sdSG--…g (SEQ ID NO: 93)] | – | < 2 min |
| DSGALEEELRRRLSPG [ds…g (SEQ ID NO: 99)] | – | < 2 min |
| DSGRLEEELRRSPG [ds…--SPg (SEQ ID NO: 95)] | – | < 2 min |
| SDSGLEEEARRRLSPG [sd…g (SEQ ID NO: 97)] | – | < 2 min |
| DSGRLEEELRRRSPG [ds…-SPg (SEQ ID NO: 94)] | – | < 2 min |
